The target in data set [1] is T1, Ino2pDBD WT;Ino4pDBD WT (Saccharomyces cerevisiae (genomic DNA …, UniProt P26798;P13902 230-304;40-117, |)).
T1 sequence 1: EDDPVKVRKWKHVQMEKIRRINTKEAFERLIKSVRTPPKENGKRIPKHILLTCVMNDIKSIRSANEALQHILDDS
T1 sequence 2: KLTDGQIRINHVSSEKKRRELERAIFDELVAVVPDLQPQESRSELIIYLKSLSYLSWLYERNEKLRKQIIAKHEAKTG
In words: EMSA; 20 mM Tris-HCl pH 8.0, 100 mM NaCl (buffer B); EMSA 1.5 uM DNA, 1.5-150 uM protein, 1 h on ice; ITC at 10 C, 400 uM DNA into 20 uM protein. To be noted: protein: recombinant;recombinant, tags: N-terminal His6;none (with His-Ino2p), copies: 1;1. For orientation: Mobility shift assays separate free from complexed probe on a gel.

The target in data set [2] is T1, Ino2pDBD WT;Ino4pDBD WT. In words: ITC; 10 C; 20 mM Tris-HCl pH 8.0, 100 mM NaCl (buffer B); EMSA 1.5 uM DNA, 1.5-150 uM protein, 1 h on ice; ITC at 10 C, 400 uM DNA into 20 uM protein. To be noted: protein: recombinant;recombinant; tags: N-terminal His6;none (with His-Ino2p); copies: 1;1; 14 bp with 5' overhang 1 nt at each end. (In general: ITC needs no label: the signal is the heat of the interaction.)

The next data set deals with T2, Ino2pMut;Ino4pDBD WT (Saccharomyces cerevisiae;Saccharomyces …, UniProt P26798;P13902 230-304;40-117, H241A;E245A;R249A;R273A|).
T2 sequence 1: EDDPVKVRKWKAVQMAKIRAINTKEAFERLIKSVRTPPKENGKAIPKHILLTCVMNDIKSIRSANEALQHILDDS
T2 sequence 2: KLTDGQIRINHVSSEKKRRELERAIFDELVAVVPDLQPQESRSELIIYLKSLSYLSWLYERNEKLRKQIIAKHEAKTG
Described as above. The following applies: protein: recombinant;recombinant; tags: N-terminal His6;none (with His-Ino2p); copies: 1;1; 14 bp with 5' overhang 1 nt at each end.

A further data set has as its target T3, Ino2pDBD WT;Ino4pMut (Saccharomyces cerevisiae (genomic DNA …, UniProt P26798;P13902 230-304;40-117, |H50A;E54A;R57A;R58A)).
T3 sequence 1: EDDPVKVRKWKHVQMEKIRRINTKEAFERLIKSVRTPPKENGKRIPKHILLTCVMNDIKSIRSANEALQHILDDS
T3 sequence 2: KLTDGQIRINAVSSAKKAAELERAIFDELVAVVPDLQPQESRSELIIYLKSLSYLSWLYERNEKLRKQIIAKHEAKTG
The data set is described as above. The following applies: protein: recombinant;recombinant; tags: N-terminal His6;none; copies: 1;1; 14 bp with 5' overhang 1 nt at each end.

Consider three molecules from publication PMC9315497, “Structural Analysis of Ino2p/Ino4p Mutual Interactions and Their Binding Interface with Promoter DNA”.

By Kd is commonly meant the concentration at which binding is half-saturated.

B1: 19bp-FAM promoter DNA (dsDNA)
DNA 1: GAATTTTCACATGCAGATC
DNA 2: GATCTGCATGTGAAAATTC
Take B1: the binding result with Ino2pDBD WT;Ino4pDBD WT [1] (label: 5'-FAM on sense strand, blunt) is reported as “binds”.

B2: 15bp-GC promoter DNA (dsDNA)
DNA 1: GATTTTCACATGCAG
DNA 2: CCTGCATGTGAAAAT
As for B2, in the data set with Ino2pDBD WT;Ino4pDBD WT [2], the Kd was 749 nM. Moreover, the binding result with Ino2pMut;Ino4pDBD WT and in the data set with Ino2pDBD WT;Ino4pMut was “no binding” each time.

B3: Flanking mutant promoter DNA (dsDNA)
DNA 1: GAGGGTCACATGCAG
DNA 2: CTGCATGTGACCCTC
B3: the binding result with Ino2pDBD WT;Ino4pDBD WT [1] is “binds”.
